{"source": "patent US20250376528A1", "target": "human IL-10 receptor (hIL-10R α and β chains) on HEK-Blue IL-10 reporter cells (human) (UniProt Q13651)", "sequence (Q13651 22-578, chain 1 of 2)": "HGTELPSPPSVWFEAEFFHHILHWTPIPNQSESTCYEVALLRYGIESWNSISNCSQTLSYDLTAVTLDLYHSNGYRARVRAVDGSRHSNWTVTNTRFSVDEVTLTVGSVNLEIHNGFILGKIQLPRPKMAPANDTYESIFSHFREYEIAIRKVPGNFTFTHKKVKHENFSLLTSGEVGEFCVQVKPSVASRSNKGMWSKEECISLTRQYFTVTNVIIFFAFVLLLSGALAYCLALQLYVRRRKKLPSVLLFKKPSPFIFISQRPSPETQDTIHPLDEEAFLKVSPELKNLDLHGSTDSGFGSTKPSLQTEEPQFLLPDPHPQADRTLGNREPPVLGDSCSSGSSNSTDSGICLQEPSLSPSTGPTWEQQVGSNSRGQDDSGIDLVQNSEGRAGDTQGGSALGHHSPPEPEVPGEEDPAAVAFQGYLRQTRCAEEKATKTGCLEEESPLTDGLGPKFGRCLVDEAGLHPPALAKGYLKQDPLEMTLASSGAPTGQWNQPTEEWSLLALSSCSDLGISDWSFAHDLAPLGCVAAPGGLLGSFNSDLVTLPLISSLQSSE", "sequence (Q08334 20-325, chain 2 of 2, further chain)": "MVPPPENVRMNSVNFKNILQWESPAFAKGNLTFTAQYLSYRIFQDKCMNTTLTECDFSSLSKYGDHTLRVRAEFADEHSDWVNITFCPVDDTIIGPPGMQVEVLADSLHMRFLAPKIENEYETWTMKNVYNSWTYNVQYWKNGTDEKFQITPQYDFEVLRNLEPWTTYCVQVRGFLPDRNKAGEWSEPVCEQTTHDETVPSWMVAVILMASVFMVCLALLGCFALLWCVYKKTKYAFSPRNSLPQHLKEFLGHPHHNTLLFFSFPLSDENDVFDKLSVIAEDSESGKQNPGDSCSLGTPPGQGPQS", "assay": "cell-based or functional assay"}
{"substance": "Recombinant Animal-Free Human IL-10 (Shenandoah Biotechnology, Catalog No. 100-83AF) (from UniProt P22301 19-178) (ligand)", "values": [{"measurement": "Abs 630 (25 nM)", "result": 2.08, "unit": "Abs 630"}, {"measurement": "Abs 630 (100 nM)", "result": 2.04, "unit": "Abs 630"}]}
